Results as given in PMC6237754, “A monovalent ion in the DNA binding interface of the eukaryotic junction-resolving enzyme GEN1”.

Molecular target: T1, CtGEN1 (Chaetomium thermophilum, UniProt G0RYN2 1-487)
T1 sequence: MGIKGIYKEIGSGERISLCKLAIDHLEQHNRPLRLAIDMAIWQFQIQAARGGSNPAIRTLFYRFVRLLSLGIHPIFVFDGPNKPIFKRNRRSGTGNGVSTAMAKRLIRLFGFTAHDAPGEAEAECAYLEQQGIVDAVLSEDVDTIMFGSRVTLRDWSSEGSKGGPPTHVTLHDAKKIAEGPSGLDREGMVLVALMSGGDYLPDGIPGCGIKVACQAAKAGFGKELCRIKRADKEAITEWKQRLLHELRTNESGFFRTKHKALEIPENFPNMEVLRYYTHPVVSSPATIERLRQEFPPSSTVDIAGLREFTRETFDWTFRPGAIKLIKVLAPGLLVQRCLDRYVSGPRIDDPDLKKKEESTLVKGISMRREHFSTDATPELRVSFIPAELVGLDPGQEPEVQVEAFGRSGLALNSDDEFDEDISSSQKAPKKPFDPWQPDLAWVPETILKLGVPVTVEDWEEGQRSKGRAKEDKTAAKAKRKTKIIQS
Assay: EMSA; 100 mM KCl; EMSA: equal volumes of DNA in 10 mM Tris pH 7.5, 0.1% BSA, 100 mM KCl or NaCl and CtGEN1 in 10 mM Tris pH 7.5, 100 mM NDSB-195, 0.1% BSA, 1 mM EDTA; 20 min, 20
Details: protein: recombinant; tags: C-terminal His6; chain copies: 2; label: 5'-32P; four-way junction; strands b/h/r/x, 50 nt each

B1: four-way junction 3 (4H) (structured_DNA)
DNA 1: CCTCGAGGGATCCGTCCTAGCAAGGGGCTGCTACCGGAAGCTTACAGATG
DNA 2: CATCTGTAAGCTTCCGGTAGCAGCCTGAGCGGTGGTTGAATTCACAGATG
DNA 3: CATCTGTGAATTCAACCACCGCTCAACTCAACTGCAGTCTAGAACACATG
DNA 4: CATGTGTTCTAGACTGCAGTTGAGTCCTTGCTAGGACGGATCCCTCGAGG
Q: B1 was tested. Which binding signal did it give?
A: ~2 fold higher affinity than in Na+
